Measurements from patent US20160287696A1, “PAN POLLEN IMMUNOGENS AND METHODS AND USES FOR IMMUNE RESPONSE MODULATION” (LA JOLLA INSTITUTE FOR ALLERGY AND IMMUNOLOGY, priority 2013, published 2016).

What was measured:
splenocytes [1] = experiment: Bystander tolerance induction by prophylactic SLIT in mice, IP sensitization with NTGA 86/51 together with OVA; type: in vivo; conditions: for NTGA 86/51 specific in vitro proliferation of splenocytes vs buffer treated mice: FIG. 4
Source text: Bystander tolerance induction by prophylactic SLIT treatment with A0086 (FIG. 4). The ability of NTGA 86/51 to induce bystander tolerance, i.e. to induce tolerance against a non-related protein was investigated by SLIT treating the mice for two weeks with NTGA 86/51 followed by an IP sensitization with NTGA 86/51 together with the unrelated protein ovalbumin (OVA). Following this splenocytes were stimulated in vitro either with NTGA 86/51to confirm the ability of this protein to induce tolerance towards itself, or with OVA to investigate if NTGA 86/51 can induce bystander tolerance towards an unrelated protein.

[2] = system: cultured PBMCs of the allergic donors; experiment: ELISPOT of IL-5 or IFNg production by cultured PBMCs of TG allergic donors in response to peptide; type: cell-based, human; conditions: for # Th+: Table 7, peptides per NTGA recognized by T cells of grass allergic donors (n=20); for NTGA's containing at least one T cell epitope, Th+ (Col 2): NTGA number given = criterion met, TG allergic donors n=20; for No of PG+ & th+ peptides per NTGA / No of PP & Th+ peptides per NTGA: Table 6; for No of PG+ & th+ peptides per NTGA: PG+ peptides recognized by T cells of grass allergic donors (n=20); for No of PP & Th+ peptides per NTGA: PP peptides recognized by T cells of grass allergic donors (n=20)
Outline: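 PBMCs from Timothy grass-allergic donors (n=20), expanded in vitro with TG extract (50 μg/mL) or peptide pool, then plated at 1×10^5 cells/well with single 15-mer peptide (10 μg/mL). IL-5 or IFNg measured by ELISPOT; peptide response positive at ≥20 SFCs/10^6 PBMCs, P .05, stimulation index ≥2; value is number of responding donors.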

splenocytes [3] = experiment: Sensitization pattern: in vitro proliferation (3H-thymidine) of splenocytes of mice sensitized to Phl p extract; type: cell-based, BALB/c mice; conditions: mice sensitized IP with Phl p extract; 6 days stimulation
Source text: Initially, the sensitization pattern of an immunogen of the invention (NTGA 86/51) was investigated in BALB/c mice sensitized to Phl p extract (FIG. 2). For the purposes of these studies, the immunogen were expressed in E. Coli using standard expression protocols.
Mice were sensitized by one intraperitoneal injection with Phl p extract adsorbed to aluminium hydroxide. Eleven days later the mice were euthanized and splenocytes were stimulated in vitro with Phl p extract, Phl p 1, Phl p 5, NTGA 86/51. The cells were incubated for 6 days at 37° C. under 5% CO2 and incorporated 3H-thymidine was counted and used as a measure for T cell proliferation.

splenocytes [4] = experiment: Prophylactic SLIT tolerance induction in mice, splenocyte proliferation; type: in vivo, BALB/c mice; conditions: prophylactic SLIT two weeks; for tolerance towards the immunogen itself (proliferation of splenocytes vs buffer (sham) treated mice): FIG. 3A / 3C
Source text: Then the tolerance induction of NTGA 86/51 was investigated in a prophylactic mice model using sublingual administration (FIG. 3)
The ability of NTGA 86/51 and NTGA 6 to induce prophylactic tolerance was investigated by SLIT treating naive BALB/c mice with NTGA 86/51 or NTGA 6 for two weeks (Monday-Friday) followed by one Phl p extract sensitization or sensitization to the immunogen itself (NTGA 86/51 or NTGA 6) as described above. Eleven days after the sensitization, splenocytes were harvested and stimulated in vitro with NTGA 86/51 as well as Phl p extract.

B1: ovalbumin (protein, UniProt P01012 2-386, looked up)
Ovalbumin: GSIGAASMEFCFDVFKELKVHHANENIFYCPIAIMSALAMVYLGAKDSTRTQINKVVRFDKLPGFGDSIEAQCGTSVNVHSSLRDILNQITKPNDVYSFSLASRLYAEERYPILPEYLQCVKELYRGGLEPINFQTAADQARELINSWVESQTNGIIRNVLQPSSVDSQTAMVLVNAIVFKGLWEKAFKDEDTQAMPFRVTEQESKPVQMMYQIGLFRVASMASEKMKILELPFASGTMSMLVLLPDEVSGLEQLESIINFEKLTEWTSSNVMEERKIKVYLPRMKMEEKYNLTSVLMAMGITDVFSSSANLSGISSAESLKISQAVHAAHAEINEAGREVVGSAEAGVDAASVSEEFRADHPFLFCIKHIATNAVLFFGRCVSP
notes: unrelated protein ovalbumin used as model allergen
NTGA 86/51 specific in vitro proliferation of splenocytes vs buffer treated mice (splenocytes [1]): able to downregulate

B2: NTGA 52: Phl p wild type sequence, Table 2 (protein)
chain: MDACRLLLLLLLGLLGLLAPLASAQLSREFYKASCPDAEKIVAAVIEKKLKEDPGTAAGLLRLLFHDCFANGCDASILIDPLSNQSAEKEAGPNISVRGFEVIDDIKKELEAKCPKTVSCADIVALGTRDAVRISGGPAYEVPTGRRDSLVSNREEADNNLPGPDIPIPKLTSEFLSRGFTPEEMVVLLAGGHSIGKVRCIFIEPDATPMDPGYQASISKLCDGPNRDTGFVNMDEHNPNVIDSSYFANVLAKKMPLTVDRLLGLDSKTTPIIKNMLNKPNDFMPTFAKAMEKLSVLKVITGKDG
modifications: Phleum Pratense
# Th+ [2]: 1

B3: NTGA 86/51: Phl p wild type full length protein from which PG+ peptides of NTGA's 86 and 51 derive (protein)
chain: MSPAEPTREESVYMAKLAEQAERYEEMVEFMERVAKATGGAGPGEELSVEERNLLSVAYKNVIGARRASWRIISSIEQKEEGRGNDAHATTIRSYRSKIEAELAKICDGILALLDSHLVPSAGAAESKVFYLKMKGDYHRYLAEFKSGAERKEAAESTMNSYKAAQDIALADLAPTHPIRLGLALNFSVFYYEILNSPDRACNLAKQAFDEAISELDSLGEESYKDSTLIMQLLRDNLTLWTSDTNEDGGDEIKEAPAPKESGD
modifications: Phleum Pratense
notes: Phl p wild type full length protein from which PG+ peptides of NTGA's 86 and 51 derive
in vitro T-cell response (splenocyte proliferation) compared to the response to Phl p 5 (splenocytes [3]): much weaker | in vitro T-cell response (splenocyte proliferation) compared to the response towards the Phl p extract (splenocytes [3]): much weaker | NTGA 86/51 specific in vitro proliferation of splenocytes vs buffer treated mice (splenocytes [1]): reduced proliferation | OVA specific in vitro proliferation of splenocytes vs buffer treated mice (bystander tolerance) (splenocytes [1]; FIG. 4B): decreased | tolerance towards the immunogen itself (proliferation of splenocytes vs buffer (sham) treated mice) (splenocytes [4]): capable of inducing tolerance towards the immunogen itself | tolerance towards Phl p extract (proliferation of splenocytes vs buffer (sham) treated mice) (splenocytes [4]; FIG. 3B): capable of inducing tolerance | NTGA's containing at least one T cell epitope, Th+ (Col 2) [2]: 86/51

B4: NTGA 8: Phl p wild type sequence, Table 2 (protein)
chain: FEGCLAKSYKSEKSDKSATYDYSANIECEKEPPKPLYGGGILTGAEAPAPVSAGGKKLLMAKSKSAPAKGSTLKVELEKDTHYTLSAWLQLSKSTGDVKAILVTPDGNFNTAGMLVVQSGCWTMLKGGATSFAAGKGELFFETNVTAELMVDSMSLQPFSFEEWKSHRHESIAKERKKKVKITVHGSDGKVLPDAELSLERVAKGFPLGNAMTKEILDIPEYEKWFTSRFTVATMENEMKWYSTEYDQNQELYEIPDKMLALAEKYNISVRGHNVFWDDQSKQMDWVSKLSAPQLKKAMEKRMKNVVSRYAGKLIHWDVLNENLHYSFFEDKLGKDASAEVFKEVAKLDDKPILFMNEYNTIEEPNDAAPLPTKYLAKLKQIQSYPGNSKLKYGIGLESHFDTPNIPYVRGSLDTLAQAKVPIWLTEIDVKKGPKQVEYLEEVMREGFAHPGVKGIVLWGAWHAKECYVMCLTDKNFKNLPVGDVVDKLITEWKAVPEDAKTDDKGVFEAELFHGEYNVTVKHKS
modifications: Phleum Pratense
# Th+ [2]: 0

B5: NTGA 3: Phl p wild type sequence, Table 2 (protein)
chain: MDDHKEHKEKEHTGGNPEVNEEEEEDEEAKRAVLLGPQVPLKEQLELDKDDESLRRWKEQLLGQVDTEQLGETAEPEVKVVDLTILSPDRPDLVLPIPFVADEKGYAFALKDGSTYSFRFSFIVSNNIVSGLKYTNTVWKTGVRVENQKMMLGTFSPQPEPYIYVGEEETTPAGIFARGSYSAKLKFVDDDGKVYLEMSYYFEIRKDWPTGQ
modifications: Phleum Pratense
No of PG+ & th+ peptides per NTGA [2]: 0 | No of PP & Th+ peptides per NTGA [2]: 0 | # Th+ [2]: 0

B6: NTGA 6: Phl p wild type sequence, Table 2 (protein)
chain: MADEKLAKLREAVAGLPQISDNEKSGFISLVSRYLSGEEEHIEWPKIHTPTDEVVVPYDTVDAPPEDLEATKALLDKLAVLKLNGGLGTTMGCTGPKSVIEVRNGFTFLDLIVLQIESLNKKYGSNVPLLLMNSFNTHEDTLKIVEKYANSSIDIHTFNQSQYPRVVADEFLPWPSKGKTDKDGWYPPGHGDIFPSLMNSGKLDLLLSQGKEYVFIANSDNLGAIVDMKILNHLIHKQNEYCMEVTPKTLADVKGGTLISYEGRVQLLEIAQVPDAHVDEFKSIEKFKIFNTNNLWVNLKAIKRLVEADALKMEIIPNPKEVDGVKVLQLETAAGAAIRFFDHAIGINVPRSRFLPVKATSDLQLVQSDLYTLVDGFVTRNSARTDPSNPSIELGPEFKKVGSFLGRFKSIPSIVELDSLKVSGDVWFGSGIVLKGKVTITAKPGVKLEIPDGAVLENKDINGAEDL
modifications: Phleum Pratense
tolerance towards the immunogen itself (proliferation of splenocytes vs buffer (sham) treated mice) (splenocytes [4]): capable of inducing tolerance towards itself | immune reactivity (SFC counts in ELISPOT) of highly conserved PG+ peptides derived from the NTGA [2]: high immune reactivity | NTGA's containing at least one T cell epitope, Th+ (Col 2) [2]: 6 | No of PG+ & th+ peptides per NTGA [2]: 22 | No of PP & Th+ peptides per NTGA [2]: 14 | # Th+ [2]: 9 | T cell reactivity of sequences contained in the protein ([2]; among top pan-pollen NTGA's ranked by number of PP peptides): highly T cell reactive sequences | PG+ peptides recognized by grass allergic donors ([2]; n=20 grass allergic donors, PG+ peptides of the NTGA): two

B7: NTGA 87: Phl p wild type sequence, Table 2 (protein)
chain: MAVKVYVVYYSMYGHVGKLAEEIKKGASSVEGVEVKVWQVPEILSEEVLGKMGAPPKTDVPIISPQELAEADGILFGFPTRFGMMASQMKAFFDATGGLWREQSLAGKPAGVFFSTGTQGGGQETTPLTAVTQLTHHGMVFVPVGYTFGAKMFDMEKVQGGSPYGAGTFAGDGSRWPSEMELEHAFHQGKYFAGIAKKLKGS
modifications: Phleum Pratense
No of PG+ & th+ peptides per NTGA [2]: 0 | No of PP & Th+ peptides per NTGA [2]: 0 | # Th+ [2]: 0
